Data on one molecule can be found in US9809653B2, “Anti-LAMP1 antibodies and antibody drug conjugates, and uses thereof” (SANOFI, priority 2012, dated 2017).

The target of test [1] is T1, Hybrid LAMP1 / glycan-deleted LAMP1 transmembrane proteins (Mus musculus, UniProt P11438, A146K/E181G/G176S/K100R/K140R/K180R/L93T/N144D/N177S/S175N/T102A/Y92H).
T1 construct: expressed in transfected cells; host or cells: 293-F (HEK293-derived), transient transfection
T1 sequence (P11438 with tags, fused parts or gaps Y92H/L93T/K100R/T102A/K140R/N144D/A146K/S175N/G176S/N177S/K180R/E181G): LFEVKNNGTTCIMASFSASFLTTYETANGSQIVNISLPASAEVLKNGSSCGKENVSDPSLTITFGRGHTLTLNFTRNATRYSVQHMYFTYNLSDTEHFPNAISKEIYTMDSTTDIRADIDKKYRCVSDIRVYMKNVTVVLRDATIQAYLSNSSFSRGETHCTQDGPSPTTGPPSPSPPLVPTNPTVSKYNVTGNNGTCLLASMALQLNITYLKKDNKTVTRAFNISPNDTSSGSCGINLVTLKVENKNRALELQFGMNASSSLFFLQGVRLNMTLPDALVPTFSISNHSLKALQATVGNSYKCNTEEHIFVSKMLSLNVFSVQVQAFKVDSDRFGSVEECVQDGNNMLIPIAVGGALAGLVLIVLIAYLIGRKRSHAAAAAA
The test is described as follows: Binding onto membrane-anchored hybrid or mutated LAMP1 proteins (293-F cells) by flow cytometry. Also noted: species or system human/mouse. Conditions: pXL6092 mLAMP1_hseq6-9-11_ΔGYQTI; Table 17 Experiment no2. On the procedure: Different LAMP1 proteins were expressed at the cell membrane of HEK293 cells after transient expression from mammalian plasmids encoding the entire coding sequence of LAMP1 deleted of the intracellular lysosome-targeting motif GYQTI and substituted by a 5-Ala repeat sequence.
Two days post transfection cells were processed, analyzed by flow cytometry (Guava® easyCyte™ 8HT) as mentioned in example 4.7, and the mean fluorescence was recorded. This fluorescence represents a semi-quantitative assessment of binding.

The target of test [2] is T2, LAMP1 in human tumoral and non-tumoral tissues (Homo sapiens, UniProt P11279).
T2 construct: from tissue; host or cells: human tumoral and non-tumoral tissue sections and PDX tumour sections (frozen-OCT, AFA, FFPE)
T2 sequence (P11279 29-417): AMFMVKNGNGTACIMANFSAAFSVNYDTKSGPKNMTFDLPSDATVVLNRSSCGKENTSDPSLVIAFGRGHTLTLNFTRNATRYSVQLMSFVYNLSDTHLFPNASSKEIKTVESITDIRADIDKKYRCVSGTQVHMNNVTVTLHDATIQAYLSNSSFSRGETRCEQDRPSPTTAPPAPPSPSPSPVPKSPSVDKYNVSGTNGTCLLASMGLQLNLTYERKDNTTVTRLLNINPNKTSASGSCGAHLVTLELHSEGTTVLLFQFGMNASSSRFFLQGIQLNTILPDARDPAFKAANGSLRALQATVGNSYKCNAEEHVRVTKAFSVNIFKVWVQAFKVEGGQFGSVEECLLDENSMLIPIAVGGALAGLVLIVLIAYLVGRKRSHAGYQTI
Briefly: IHC on frozen-OCT / AFA human tumoral and non-tumoral tissues. The settings on record: CR-LRB-010P, human non-tumoral colon and skin. On the procedure:
Individual hybridoma supernatants raised against tumor tissue CR-LRB-010P were screened by IHC on a macroarray slide containing frozen sections of immunizing tumor (CR-LRB-010P), human non-tumoral colon and human non-tumoral skin. Frozen-OCT (from Optimal Cutting Temperature) specimens of non-tumoral colon and skin were obtained from surgical cases (commercial sources such as Asterand, US Biomax, Strasbourg Hospital). The automated immunostaining was performed unsing Ventana Discovery and Discovery XT automated systems (Ventana Medical Systems, Inc, USA).
Frozen 10 μm cryostat sections were incubated with IgG culture supernatants as primary antibody (unknown concentration, dilution ⅓ in Phosphate Buffer Saline, PBS) for 40 min at 37° C. Culture medium was used as negative control. A postfixation step with glutaraldehyde (0.05% in NaCl 0.9% w/v) for 4 min was done. The secondary antibody Affinipure rabbit anti-mouse IgG (315-005_008, Jackson Immunosearch Laboratories, Inc. USA) was used at 4.8 μg/mL and incubated for 12 min at 37° C. Immunostaining was done with UltraMap Red chromogenic detection kit according to manufacturers recommendations for 8 min. Cryostat sections were subsequently couterstaining with hematoxylin II (790-2208, Ventana Medical Systems, Inc USA) and bluing for 4 min (760-2037). […]
Sections immunostained with mAbs were analyzed by microscope (Nikon Eclipse E400). […]

B1: MAb1: murine monoclonal anti-LAMP1 antibody, VH SEQ ID NO: 1, VL SEQ ID NO: 5 (antibody, V domains shown)
VH: QVQLQQSGAELVKPGASVKMSCKASGYIFTNYNIHWVKKSPGQGLEWIGAIYPGNGDAPYSQKFKDKATLTADKSSSTTYMQLSRLTSEDSAVYYCVRANWDVAFAYWGQGTLVSVSA
VL: DIQMTQSPPSLSASLGGKVTITCKASQDIDRYMAWYQDKPGKGPRLLIHDTSTLQPGIPSRFSGSGSGRDYSFSISNLEPEDIATYYCLQYDNLWTFGGGTKLEIK
modifications: Antibody Fragment; antibody fragment
Take B1: in test [1], the Binding call is “Full binding” and the Mean fluorescence came out at 499. In addition, the “IHC reactivity on frozen sections” value in test [2] is on record as “showed evidence of tumor-associated reactivity”.
